The record followed here is IntAct's records for PubMed 29892012.

B1: E3 ubiquitin-protein ligase LNX (Homo sapiens), Q8TBB1 (parent)
chain: MNQPESANDPEPLCAVCGQAHSLEENHFYSYPEEVDDDLICHICLQALLDPLDTPCGHTYCTLCLTNFLVEKDFCPMDRKPLVLQHCKKSSILVNKLLNKLLVTCPFREHCTQVLQRCDLEHHFQTSCKGASHYGLTKDRKRRSQDGCPDGCASLTATAPSPEVSAAATISLMTDEPGLDNPAYVSSAEDGQPAISPVDSGRSNRTRARPFERSTIRSRSFKKINRALSVLRRTKSGSAVANHADQGRENSENTTAPEVFPRLYHLIPDGEITSIKINRVDPSESLSIRLVGGSETPLVHIIIQHIYRDGVIARDGRLLPGDIILKVNGMDISNVPHNYAVRLLRQPCQVLWLTVMREQKFRSRNNGQAPDAYRPRDDSFHVILNKSSPEEQLGIKLVRKVDEPGVFIFNVLDGGVAYRHGQLEENDRVLAINGHDLRYGSPESAAHLIQASERRVHLVVSRQVRQRSPDIFQEAGWNSNGSWSPGPGERSNTPKPLHPTITCHEKVVNIQKDPGESLGMTVAGGASHREWDLPIYVISVEPGGVISRDGRIKTGDILLNVDGVELTEVSRSEAVALLKRTSSSIVLKALEVKEYEPQEDCSSPAALDSNHNMAPPSDWSPSWVMWLELPRCLYNCKDIVLRRNTAGSLGFCIVGGYEEYNGNKPFFIKSIVEGTPAYNDGRIRCGDILLAVNGRSTSGMIHACLARLLKELKGRITLTIVSWPGTFL
partner: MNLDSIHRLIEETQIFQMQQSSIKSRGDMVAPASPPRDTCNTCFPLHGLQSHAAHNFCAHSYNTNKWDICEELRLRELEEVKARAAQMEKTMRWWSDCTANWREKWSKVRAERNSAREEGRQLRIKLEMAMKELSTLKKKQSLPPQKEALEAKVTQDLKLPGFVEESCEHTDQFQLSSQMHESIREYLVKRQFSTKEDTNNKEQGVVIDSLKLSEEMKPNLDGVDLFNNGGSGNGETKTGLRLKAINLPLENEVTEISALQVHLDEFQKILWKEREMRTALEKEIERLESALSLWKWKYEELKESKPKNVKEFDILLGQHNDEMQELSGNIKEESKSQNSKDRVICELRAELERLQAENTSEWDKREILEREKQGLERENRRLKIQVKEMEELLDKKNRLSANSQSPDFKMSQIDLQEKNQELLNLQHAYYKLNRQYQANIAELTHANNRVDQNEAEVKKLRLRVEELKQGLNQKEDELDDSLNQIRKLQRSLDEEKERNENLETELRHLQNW
B2: E3 ubiquitin-protein ligase LNX (Homo sapiens), Q8TBB1 (parent)
chain: B1 chain
partner: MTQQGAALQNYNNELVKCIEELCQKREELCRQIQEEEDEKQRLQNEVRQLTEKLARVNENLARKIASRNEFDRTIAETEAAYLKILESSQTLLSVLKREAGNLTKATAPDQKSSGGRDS
B3: E3 ubiquitin-protein ligase LNX (Homo sapiens), Q8TBB1 (parent)
chain: B1 chain
partner: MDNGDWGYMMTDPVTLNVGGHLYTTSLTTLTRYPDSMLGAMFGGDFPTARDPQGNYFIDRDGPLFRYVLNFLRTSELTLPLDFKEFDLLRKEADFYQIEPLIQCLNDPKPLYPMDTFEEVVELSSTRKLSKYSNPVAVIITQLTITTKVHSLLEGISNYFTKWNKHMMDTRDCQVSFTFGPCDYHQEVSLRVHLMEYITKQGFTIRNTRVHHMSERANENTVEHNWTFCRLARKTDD
B4: Rho guanine nucleotide exchange factor 3 (Homo sapiens), Q9NR81 (parent)
chain: MVAKDYPFYLTVKRANCSLELPPASGPAKDAEEPSNKRVKPLSRVTSLANLIPPVKATPLKRFSQTLQRSISFRSESRPDILAPRPWSRNAAPSSTKRRDSKLWSETFDVCVNQMLTSKEIKRQEAIFELSQGEEDLIEDLKLAKKAYHDPMLKLSIMTEQELNQIFGTLDSLIPLHEELLSQLRDVRKPDGSTEHVGPILVGWLPCLSSYDSYCSNQVAAKALLDHKKQDHRVQDFLQRCLESPFSRKLDLWNFLDIPRSRLVKYPLLLREILRHTPNDNPDQQHLEEAINIIQGIVAEINTKTGESECRYYKERLLYLEEGQKDSLIDSSRVLCCHGELKNNRGVKLHVFLFQEVLVITRAVTHNEQLCYQLYRQPIPVKDLLLEDLQDGEVRLGGSLRGAFSNNERIKNFFRVSFKNGSQSQTHSLQANDTFNKQQWLNCIRQAKETVLCAAGQAGVLDSEGSFLNPTTGSRELQGETKLEQMDQSDSESDCSMDTSEVSLDCERMEQTDSSCGNSRHGESNV
partner: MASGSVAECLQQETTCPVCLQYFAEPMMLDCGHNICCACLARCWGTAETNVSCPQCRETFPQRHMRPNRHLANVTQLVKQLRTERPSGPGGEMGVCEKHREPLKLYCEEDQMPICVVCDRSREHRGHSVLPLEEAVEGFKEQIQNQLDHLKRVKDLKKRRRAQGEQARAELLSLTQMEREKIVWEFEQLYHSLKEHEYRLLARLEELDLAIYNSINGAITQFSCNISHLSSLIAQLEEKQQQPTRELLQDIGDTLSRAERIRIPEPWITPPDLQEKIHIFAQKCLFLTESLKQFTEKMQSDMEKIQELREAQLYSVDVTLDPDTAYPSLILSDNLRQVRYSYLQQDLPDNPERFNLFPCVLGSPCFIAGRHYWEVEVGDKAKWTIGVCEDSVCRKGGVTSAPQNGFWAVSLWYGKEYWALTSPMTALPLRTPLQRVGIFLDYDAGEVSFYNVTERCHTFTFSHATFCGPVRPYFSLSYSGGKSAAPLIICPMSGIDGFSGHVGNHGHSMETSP
B5: E3 ubiquitin-protein ligase LNX (Homo sapiens), Q8TBB1 (parent)
chain: B1 chain
partner: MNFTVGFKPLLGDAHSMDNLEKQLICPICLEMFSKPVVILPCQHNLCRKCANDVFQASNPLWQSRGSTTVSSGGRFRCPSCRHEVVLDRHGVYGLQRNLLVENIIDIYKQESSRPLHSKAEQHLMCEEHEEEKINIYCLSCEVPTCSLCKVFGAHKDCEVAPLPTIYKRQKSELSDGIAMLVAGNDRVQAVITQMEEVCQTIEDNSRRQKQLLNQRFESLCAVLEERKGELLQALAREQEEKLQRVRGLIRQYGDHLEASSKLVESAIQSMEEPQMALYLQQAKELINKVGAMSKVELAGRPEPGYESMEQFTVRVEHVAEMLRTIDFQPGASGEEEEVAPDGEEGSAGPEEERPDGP

The variants in one experiment derive from B1. The settings on record: with CCDC102B.
E295K: the “effect of a mutation on the interaction” value is recorded as “disrupting interaction strength”.

Variants of B2 are the subject of another experiment. The settings on record: with ssna1_human SSNA1, O43805.
As for E295K, the “effect of a mutation on the interaction” value was “disrupting interaction strength”.

In a further experiment the parent is B3. The settings on record: with kctd6_human KCTD6, Q8NC69.
For E295K, the “effect of a mutation on the interaction” value is “disrupting interaction strength”.

A further experiment covers variants of B4. The settings on record: with tri27_human TRIM27, P14373.
As for MVAKDYPFYLTVKRANCSLELPPASGPAKDAEESSNKRVKPLSRVTSLANLIPPVKATPLKRFSQTLQRSISFRSESRPDILAPRPWSRNAAPSSTKRRDSKLWSETFDVCVNQMLTSKEIKRQEAIFELSQGEEDLIEDLKLAKKAYHDPMLKLSIMTEQELNQIFGTLDSLIPLHEELLSQLRDVRKPDGSTEHVGPILVGWLPCLSSYDSYCSNQVAAKALLDHKKQDHRVQDFLQRCLESPFSRKLDLWNFLDIPRSRLVKYPLLLREILRHTPNDNPDQQHLEEAINIIQGIVAEINTKTGESECRYYKERLLYLEEGQKDSLIDSSRVLCCHGELKNNRGVKLHVFLFQEVLVITRAVTHNEQLCYQLYRQPIPVKDLLLEDLQDGEVRLGGSLRGAFSNNERIKNFFRVSFKNGSQSQTHSLQANDTFNKQQWLNCIRQAKETVLCAAGQAGVLDSEGSFLNPTTGSRELQGETKLEQMDQSDSESDCSMDTSEVSLDCERMEQTDSSCGNSRHGESNV [P34S], the “effect of a mutation on the interaction” value is given as “with no effect”.

In another experiment the parent is B5. The settings on record: with tri54_human TRIM54, Q9BYV2.
Regarding E295K, the “effect of a mutation on the interaction” value is recorded as “disrupting interaction strength”.
